How the values were obtained:
Test in all cases: Kinase Profiling Assay
Format in all cases: biochemical
Settings in all cases: 100 μM peptide
DMPK(h) = target: T1, DMPK(h) (Homo sapiens, UniProt Q09013)
T1 sequence (Q09013 1-629): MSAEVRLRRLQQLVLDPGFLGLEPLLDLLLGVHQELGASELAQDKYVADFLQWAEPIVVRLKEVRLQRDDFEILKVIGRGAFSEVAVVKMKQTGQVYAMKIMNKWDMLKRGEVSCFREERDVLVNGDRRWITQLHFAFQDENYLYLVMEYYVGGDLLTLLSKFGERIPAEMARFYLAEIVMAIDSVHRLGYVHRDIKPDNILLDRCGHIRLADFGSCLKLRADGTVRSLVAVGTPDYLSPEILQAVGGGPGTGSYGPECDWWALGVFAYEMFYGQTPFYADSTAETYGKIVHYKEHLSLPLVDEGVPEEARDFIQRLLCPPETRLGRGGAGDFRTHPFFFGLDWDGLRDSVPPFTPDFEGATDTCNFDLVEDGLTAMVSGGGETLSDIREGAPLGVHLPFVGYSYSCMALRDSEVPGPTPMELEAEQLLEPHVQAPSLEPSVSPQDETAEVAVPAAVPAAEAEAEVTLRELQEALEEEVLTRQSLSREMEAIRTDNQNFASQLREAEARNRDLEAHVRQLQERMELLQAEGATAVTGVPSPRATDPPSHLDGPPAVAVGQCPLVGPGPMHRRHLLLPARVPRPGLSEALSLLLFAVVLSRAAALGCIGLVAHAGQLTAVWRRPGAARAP
Summary of the method: (§1)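 Peptides designed to inhibit MK2 were checked against a broad human kinase panel (266 enzymes), with duplicate measurement of every activity.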

EphA5(h) = EphA5(h) (Homo sapiens, UniProt P54756)
Summary of the method: as §1

LIMK1(h) = LIMK1(h) (Homo sapiens, UniProt P53667)
Summary of the method: as §1

MINK(h) = MINK(h) (Homo sapiens, UniProt Q8N4C8)
Summary of the method: as §1

NEK7(h) = NEK7(h) (Homo sapiens, UniProt Q8TDX7)
Summary of the method: as §1

PDK1(h) = target: T2, PDK1(h) (Homo sapiens, UniProt O15530)
T2 sequence (O15530 1-556): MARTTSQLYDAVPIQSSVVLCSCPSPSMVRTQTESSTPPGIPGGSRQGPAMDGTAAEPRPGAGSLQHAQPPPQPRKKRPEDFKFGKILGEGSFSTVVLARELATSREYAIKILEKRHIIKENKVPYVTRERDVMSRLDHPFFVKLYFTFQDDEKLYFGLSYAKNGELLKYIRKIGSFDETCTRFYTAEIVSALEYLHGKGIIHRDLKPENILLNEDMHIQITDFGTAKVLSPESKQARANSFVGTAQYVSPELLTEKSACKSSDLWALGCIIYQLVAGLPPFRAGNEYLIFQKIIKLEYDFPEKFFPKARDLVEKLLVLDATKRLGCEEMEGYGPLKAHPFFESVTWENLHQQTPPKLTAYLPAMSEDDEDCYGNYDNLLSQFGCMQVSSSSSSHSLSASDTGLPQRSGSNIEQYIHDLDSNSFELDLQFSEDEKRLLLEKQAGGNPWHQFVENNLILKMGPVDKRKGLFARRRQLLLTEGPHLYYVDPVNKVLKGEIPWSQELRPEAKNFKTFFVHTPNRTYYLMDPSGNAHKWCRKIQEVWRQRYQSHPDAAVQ
Summary of the method: as §1

PKG1β(h) = target: T3, PKG1β(h) (Homo sapiens, UniProt Q13976)
T3 construct: purchased Millipore (IC50 Profiler Express service)
T3 sequence (Q13976 1-686 isoform Q13976-2): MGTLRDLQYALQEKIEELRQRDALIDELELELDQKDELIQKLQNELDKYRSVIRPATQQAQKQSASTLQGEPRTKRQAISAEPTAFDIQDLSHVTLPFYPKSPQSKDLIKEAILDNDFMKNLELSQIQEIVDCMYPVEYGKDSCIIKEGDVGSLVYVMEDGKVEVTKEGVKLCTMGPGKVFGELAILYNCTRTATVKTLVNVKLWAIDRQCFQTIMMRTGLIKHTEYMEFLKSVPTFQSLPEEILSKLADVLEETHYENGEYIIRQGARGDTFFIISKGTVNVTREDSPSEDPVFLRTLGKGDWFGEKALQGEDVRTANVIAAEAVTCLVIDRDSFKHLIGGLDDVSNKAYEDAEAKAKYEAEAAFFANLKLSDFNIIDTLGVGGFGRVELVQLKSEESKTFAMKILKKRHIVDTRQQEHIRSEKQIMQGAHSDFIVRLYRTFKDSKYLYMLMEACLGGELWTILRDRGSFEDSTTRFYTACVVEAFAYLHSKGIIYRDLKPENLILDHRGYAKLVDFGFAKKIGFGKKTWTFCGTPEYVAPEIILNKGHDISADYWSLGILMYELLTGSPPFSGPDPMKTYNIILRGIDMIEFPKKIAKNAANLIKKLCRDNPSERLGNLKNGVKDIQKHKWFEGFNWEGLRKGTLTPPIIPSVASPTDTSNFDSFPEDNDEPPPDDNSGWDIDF
Summary of the method: as §1

Src(1-530)(h) = target: T4, Src(1-530)(h) (Homo sapiens, UniProt P12931)
T4 construct: Src(1-530)
Summary of the method: as §1

Sequence of EphA5(h) (P54756 25-1037): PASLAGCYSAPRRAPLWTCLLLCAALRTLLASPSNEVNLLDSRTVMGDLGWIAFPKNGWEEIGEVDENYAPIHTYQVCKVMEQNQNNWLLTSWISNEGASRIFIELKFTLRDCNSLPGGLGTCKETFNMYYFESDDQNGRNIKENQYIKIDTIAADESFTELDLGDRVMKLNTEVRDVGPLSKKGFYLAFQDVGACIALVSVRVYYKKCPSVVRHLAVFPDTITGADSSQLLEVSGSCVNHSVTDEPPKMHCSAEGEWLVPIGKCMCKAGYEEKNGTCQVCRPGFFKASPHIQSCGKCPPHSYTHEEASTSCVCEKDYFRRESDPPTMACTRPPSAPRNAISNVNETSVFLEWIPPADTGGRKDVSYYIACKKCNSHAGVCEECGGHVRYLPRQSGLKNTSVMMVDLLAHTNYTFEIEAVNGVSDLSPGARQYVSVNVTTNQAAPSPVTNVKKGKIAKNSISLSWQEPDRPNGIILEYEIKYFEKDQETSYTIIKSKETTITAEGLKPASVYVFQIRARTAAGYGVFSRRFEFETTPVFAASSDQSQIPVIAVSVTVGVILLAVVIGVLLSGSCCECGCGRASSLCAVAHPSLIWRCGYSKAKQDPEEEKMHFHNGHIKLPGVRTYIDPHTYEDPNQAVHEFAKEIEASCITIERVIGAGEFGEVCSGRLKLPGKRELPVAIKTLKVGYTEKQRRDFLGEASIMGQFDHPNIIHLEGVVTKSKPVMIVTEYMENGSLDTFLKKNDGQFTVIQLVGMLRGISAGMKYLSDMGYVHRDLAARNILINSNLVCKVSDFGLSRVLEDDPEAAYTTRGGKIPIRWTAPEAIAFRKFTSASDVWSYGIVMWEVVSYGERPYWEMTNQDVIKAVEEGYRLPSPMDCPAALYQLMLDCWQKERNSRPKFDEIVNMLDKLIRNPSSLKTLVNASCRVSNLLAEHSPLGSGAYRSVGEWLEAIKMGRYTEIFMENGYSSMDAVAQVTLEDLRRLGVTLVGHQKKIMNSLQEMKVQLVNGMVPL
Sequence of MINK(h) (Q8N4C8 whole entry): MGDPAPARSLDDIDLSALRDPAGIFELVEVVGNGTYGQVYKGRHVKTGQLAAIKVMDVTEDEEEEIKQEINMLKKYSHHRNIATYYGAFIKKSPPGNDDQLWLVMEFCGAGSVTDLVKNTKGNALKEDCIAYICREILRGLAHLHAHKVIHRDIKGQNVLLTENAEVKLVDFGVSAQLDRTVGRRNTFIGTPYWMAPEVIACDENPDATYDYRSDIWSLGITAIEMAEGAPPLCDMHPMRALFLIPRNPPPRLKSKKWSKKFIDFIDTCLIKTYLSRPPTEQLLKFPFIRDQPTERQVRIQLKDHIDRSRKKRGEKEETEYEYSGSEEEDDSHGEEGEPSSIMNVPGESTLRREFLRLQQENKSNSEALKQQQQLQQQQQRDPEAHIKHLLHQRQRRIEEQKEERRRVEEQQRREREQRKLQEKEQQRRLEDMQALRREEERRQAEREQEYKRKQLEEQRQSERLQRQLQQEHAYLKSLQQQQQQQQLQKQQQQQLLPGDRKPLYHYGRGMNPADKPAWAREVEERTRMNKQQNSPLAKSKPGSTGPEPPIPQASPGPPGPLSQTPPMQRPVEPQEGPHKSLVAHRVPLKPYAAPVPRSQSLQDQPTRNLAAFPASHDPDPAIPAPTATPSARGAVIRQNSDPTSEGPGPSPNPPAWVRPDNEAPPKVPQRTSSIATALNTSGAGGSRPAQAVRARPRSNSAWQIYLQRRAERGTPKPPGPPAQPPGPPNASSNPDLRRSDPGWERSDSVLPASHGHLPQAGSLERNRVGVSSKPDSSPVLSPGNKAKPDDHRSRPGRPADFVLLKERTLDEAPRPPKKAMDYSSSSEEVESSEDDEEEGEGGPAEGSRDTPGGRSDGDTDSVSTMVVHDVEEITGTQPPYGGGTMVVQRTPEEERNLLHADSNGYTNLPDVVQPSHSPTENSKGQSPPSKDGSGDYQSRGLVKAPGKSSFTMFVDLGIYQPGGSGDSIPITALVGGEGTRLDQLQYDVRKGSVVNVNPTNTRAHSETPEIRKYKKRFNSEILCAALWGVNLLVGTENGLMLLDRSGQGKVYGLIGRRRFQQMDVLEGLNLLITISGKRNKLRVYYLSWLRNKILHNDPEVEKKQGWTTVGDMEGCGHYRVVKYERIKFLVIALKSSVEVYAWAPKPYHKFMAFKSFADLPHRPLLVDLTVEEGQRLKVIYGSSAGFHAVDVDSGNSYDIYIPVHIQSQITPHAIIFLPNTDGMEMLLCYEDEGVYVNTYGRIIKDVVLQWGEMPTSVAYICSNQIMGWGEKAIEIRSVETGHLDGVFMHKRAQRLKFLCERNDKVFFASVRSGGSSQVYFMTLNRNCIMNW
Sequence of NEK7(h) (Q8TDX7 whole entry): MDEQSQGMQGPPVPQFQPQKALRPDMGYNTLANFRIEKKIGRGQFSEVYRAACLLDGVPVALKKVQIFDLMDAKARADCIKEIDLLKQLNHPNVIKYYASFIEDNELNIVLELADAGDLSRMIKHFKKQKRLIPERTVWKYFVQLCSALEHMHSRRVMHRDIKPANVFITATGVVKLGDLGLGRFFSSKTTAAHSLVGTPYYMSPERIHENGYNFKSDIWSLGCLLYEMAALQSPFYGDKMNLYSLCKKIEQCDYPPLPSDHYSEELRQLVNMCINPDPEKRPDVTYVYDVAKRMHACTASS
Sequence of LIMK1(h) (P53667 whole entry): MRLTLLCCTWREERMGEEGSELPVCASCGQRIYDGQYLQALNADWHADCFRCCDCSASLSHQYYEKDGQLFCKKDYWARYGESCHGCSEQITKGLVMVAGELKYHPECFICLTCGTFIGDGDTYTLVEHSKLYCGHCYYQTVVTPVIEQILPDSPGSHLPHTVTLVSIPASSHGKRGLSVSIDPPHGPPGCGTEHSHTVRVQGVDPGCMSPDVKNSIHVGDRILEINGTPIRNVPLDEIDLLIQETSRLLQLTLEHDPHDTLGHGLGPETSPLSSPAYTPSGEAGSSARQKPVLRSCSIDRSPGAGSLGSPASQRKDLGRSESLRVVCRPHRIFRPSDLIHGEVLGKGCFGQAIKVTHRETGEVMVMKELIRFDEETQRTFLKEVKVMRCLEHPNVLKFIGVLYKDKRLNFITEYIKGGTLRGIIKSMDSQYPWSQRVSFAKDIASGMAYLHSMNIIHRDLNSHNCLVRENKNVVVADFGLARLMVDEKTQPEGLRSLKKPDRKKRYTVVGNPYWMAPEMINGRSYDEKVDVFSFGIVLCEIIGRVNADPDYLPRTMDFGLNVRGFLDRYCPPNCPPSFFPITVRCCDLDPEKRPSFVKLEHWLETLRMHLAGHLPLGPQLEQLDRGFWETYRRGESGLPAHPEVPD

FAKLAARLYRKALARQLGVAA [MMI-0300]
DMPK(h) % activity (DMPK(h)): 59% | EphA5(h) % activity (EphA5(h)): 18% | LIMK1(h) % activity (LIMK1(h)): 88% | MINK(h) % activity (MINK(h)): 48% | NEK7(h) % activity (NEK7(h)): 84% | PDK1(h) % activity (PDK1(h)): 135% | PKG1β(h) % activity (PKG1β(h)): 50% | Src(1-530)(h) % activity (Src(1-530)(h)): 23%

KAFAKLAARLYRKALARQLGVAA [MMI-0400]
DMPK(h) % activity (DMPK(h)): 54% | EphA5(h) % activity (EphA5(h)): 24% | LIMK1(h) % activity (LIMK1(h)): 92% | MINK(h) % activity (MINK(h)): 52% | NEK7(h) % activity (NEK7(h)): 87% | PDK1(h) % activity (PDK1(h)): 159% | PKG1β(h) % activity (PKG1β(h)): 53% | Src(1-530)(h) % activity (Src(1-530)(h)): 19%

YARAAARQARAKALNRQLGVA (Mammalian) [MMI-0200]
DMPK(h) % activity (DMPK(h)): 66% | EphA5(h) % activity (EphA5(h)): 123% | NEK7(h) % activity (NEK7(h)): 96% | PDK1(h) % activity (PDK1(h)): 143% | PKG1β(h) % activity (PKG1β(h)): 57% | Src(1-530)(h) % activity (Src(1-530)(h)): 75%

HRRIKAWLKKIKALARQLGVAA (Mammalian) [MMI-0500]
DMPK(h) % activity (DMPK(h)): 12% | EphA5(h) % activity (EphA5(h)): 42% | LIMK1(h) % activity (LIMK1(h)): 87% | MINK(h) % activity (MINK(h)): 5% | NEK7(h) % activity (NEK7(h)): 89% | PDK1(h) % activity (PDK1(h)): 178% | PKG1β(h) % activity (PKG1β(h)): 24% | Src(1-530)(h) % activity (Src(1-530)(h)): 21%
